# According to patent US20220177594A1:
# Columns and labels:
# [1] = target: Canine_OSMR_hlgG1_Fc (canine); experiment: SPR Biacore, OSMR on chip
# [2] = target: Canine_OSMR_hlgG1_Fc (canine); experiment: SPR Biacore
# [3] = target: Feline_OSMR_hlgG1_Fc (feline); experiment: SPR Biacore
# [4] = target: Feline_OSMR_hlgG1_Fc (feline); experiment: SPR Biacore, OSMR on chip
# [5] = target: Feline_OSMR_hlgG1_Fc (feline); experiment: indirect ELISA, fOSMR coated; OD ratio to antibody expression control
# Sequence of Feline_OSMR_hlgG1_Fc (feline) (chain, as listed by the source limits assumed, form in doubt): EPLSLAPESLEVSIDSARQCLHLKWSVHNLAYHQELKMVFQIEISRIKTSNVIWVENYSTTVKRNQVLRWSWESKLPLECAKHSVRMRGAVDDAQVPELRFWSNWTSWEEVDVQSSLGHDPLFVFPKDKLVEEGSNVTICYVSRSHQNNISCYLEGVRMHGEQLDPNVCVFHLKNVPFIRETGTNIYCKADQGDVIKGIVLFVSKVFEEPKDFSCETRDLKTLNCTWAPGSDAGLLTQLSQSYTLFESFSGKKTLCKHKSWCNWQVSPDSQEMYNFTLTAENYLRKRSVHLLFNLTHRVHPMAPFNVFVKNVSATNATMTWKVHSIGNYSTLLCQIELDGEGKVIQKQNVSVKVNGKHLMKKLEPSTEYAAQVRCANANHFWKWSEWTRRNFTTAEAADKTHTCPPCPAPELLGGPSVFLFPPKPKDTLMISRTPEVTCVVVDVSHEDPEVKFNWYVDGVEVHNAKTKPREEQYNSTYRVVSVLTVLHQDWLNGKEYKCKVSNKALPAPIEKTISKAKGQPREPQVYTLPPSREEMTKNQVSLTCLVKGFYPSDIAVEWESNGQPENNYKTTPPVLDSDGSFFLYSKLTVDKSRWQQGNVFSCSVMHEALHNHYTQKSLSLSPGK
# Sequence of Canine_OSMR_hlgG1_Fc (canine) (chain, as listed by the source limits assumed, form in doubt): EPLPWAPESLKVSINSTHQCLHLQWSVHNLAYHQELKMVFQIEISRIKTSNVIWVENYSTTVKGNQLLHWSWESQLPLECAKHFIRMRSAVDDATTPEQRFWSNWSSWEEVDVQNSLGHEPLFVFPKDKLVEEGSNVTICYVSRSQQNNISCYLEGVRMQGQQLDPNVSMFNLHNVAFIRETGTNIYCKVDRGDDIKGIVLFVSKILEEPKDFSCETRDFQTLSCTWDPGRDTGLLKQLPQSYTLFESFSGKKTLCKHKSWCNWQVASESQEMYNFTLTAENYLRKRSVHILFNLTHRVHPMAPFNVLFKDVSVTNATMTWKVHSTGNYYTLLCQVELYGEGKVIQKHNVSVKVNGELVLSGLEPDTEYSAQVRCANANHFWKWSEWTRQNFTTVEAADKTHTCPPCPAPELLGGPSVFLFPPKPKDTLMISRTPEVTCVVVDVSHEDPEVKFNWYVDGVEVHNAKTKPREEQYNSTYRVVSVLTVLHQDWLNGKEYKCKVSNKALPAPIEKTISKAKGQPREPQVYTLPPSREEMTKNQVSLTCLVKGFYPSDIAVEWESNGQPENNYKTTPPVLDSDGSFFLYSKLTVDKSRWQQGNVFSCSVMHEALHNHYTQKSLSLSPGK
Kd [1] [nM],Kd [2] [nM],koff [2] [s⁻¹],kon [2] [M⁻¹ s⁻¹],Kd [3] [nM],koff [3] [s⁻¹],kon [3] [M⁻¹ s⁻¹],koff [1] [s⁻¹],kon [1] [M⁻¹ s⁻¹],Kd [4] [nM],koff [4] [s⁻¹],kon [4] [M⁻¹ s⁻¹],ELISA ratio [5] [OD ratio],Binder
14.2,,,,,,,,,,,,,"Mu_14C04 (antibody, V domains shown) VH: EVQLQESGAELVKPGASVKISCKASGYAFSNYWMNWMKQRPGKGLEWIGQIYPGHVNTNYNGNFKDKATLTADKSSSTAYMQLSSLTSEDSAVYFCARSADNSGFVLFAYWGQGTLVTVS VL: DIVLTQSPASLAVSLGQRATISCRASKSVSTSGYSYLHWYQQKPGQPPKLLIFLASNLESGVPARFSGSGSGTDFTLNIHPVEEEDAATYYCQHSRELPLTFGAGTKLELK"
442,7.49,0.000775,88400,0.312,8.06e-05,242000,0.00084,1900,44.5,0.002,45100,1.72,"mouse: canine 19F07 chimera (antibody, V domains shown) VH: EVKLVESEGGLVQPGSSMKLSCTASGFTFSDYYMAWVRQVPEKGLEWVANINYDGSSTYYLDSLKSRFIISRDNAKNILYLQMSSLKSEDTATYYCARGLTWDFDVWGTGTTVTVSS VL: DIVMTQSHKFMSPSVGDRVSITCKASQDVDTAVAWYQQKPGQSPKLLIYLASTRHTGVPDRFTGSGSGTDFTLTISNVQSEDLADYFCQQYSRFPLTFGAGTKLELKR"
0.951,,,,,,,,,0.0207,,,,"Mu_19F07 (antibody, V domains shown) VH: EVKLVESEGGLVQPGSSMKLSCTASGFTFSDYYMAWVRQVPEKGLEWVANINYDGSSTYYLDSLKSRFIISRDNAKNILYLQMSSLKSEDTATYYCARGLTWDFDVWGTGTTVTVSS VL: DIVMTQSHKFMSPSVGDRVSITCKASQDVDTAVAWYQQKPGQSPKLLIYLASTRHTGVPDRFTGSGSGTDFTLTISNVQSEDLADYFCQQYSRFPLTFGAGTKLELK"
5.29,3.83,0.0021,572000,1.24,0.000945,759000,0.00104,196000,2.37,0.000697,294000,1.61,"mouse: canine 09E09 chimera (antibody, V domains shown) VH: DVKLVESGEGLVKPGGSLKLSCAASGFTFSSYAMSWVRQTPEKRLEWVAYISSGGDYIYYADTVKGRFTISRDNARNTLYLQMSSLKSEDTAMYYCTRDPITGTFAYWGQGTLVTVSA VL: DLQMTQTTSSLSASLGDRVTISCRASQDINNYLNWYQQKPDGTVKLLIYYTSTLHSGVPSRFSGSGSGTDYSLTISNLEQEDIATYFCQQGNTLPWTFGGGTKLEIKR"
,3.94,0.000256,65000,1.83,0.000468,255000,,,,,,0.217,"Mu_10F07_VL (SEQ ID NO: 41)_T53A (antibody, V domains shown) VH: DVKLVESGEGLVKPGGSLKLSCAASGFTFSSYAMSWVRQTPEKRLEWVTYISSGGDYFYYADTVKGRFTISRDNARNTLYLQMSSLKSEDTAMYYCTRDPITGTFAYWGQGTLVTVSA VL: DIQMTQTTSSLSASLGDRVTISCRASQDITNYLNWYQQKPDGTVKLLIYYTSALHSGVPSRFSGSGSGTDFSLTISNLEQEDIATYFCQQGHMLPWTFGGGTKLEIKR"
,5.32,0.000219,41200,1.63,0.000282,172000,,,,,,0.298,"Mu_10F07_VL (SEQ ID NO: 41)_T97A (antibody, V domains shown) VH: DVKLVESGEGLVKPGGSLKLSCAASGFTFSSYAMSWVRQTPEKRLEWVTYISSGGDYFYYADTVKGRFTISRDNARNTLYLQMSSLKSEDTAMYYCTRDPITGTFAYWGQGTLVTVSA VL: DIQMTQTTSSLSASLGDRVTISCRASQDITNYLNWYQQKPDGTVKLLIYYTSTLHSGVPSRFSGSGSGTDFSLTISNLEQEDIATYFCQQGHMLPWAFGGGTKLEIKR"
7.87,,,,,,,,,3.75,,,,"Mu_09E09 (antibody, V domains shown) VH: DVKLVESGEGLVKPGGSLKLSCAASGFTFSSYAMSWVRQTPEKRLEWVAYISSGGDYIYYADTVKGRFTISRDNARNTLYLQMSSLKSEDTAMYYCTRDPITGTFAYWGQGTLVTVSA VL: DLQMTQTTSSLSASLGDRVTISCRASQDINNYLNWYQQKPDGTVKLLIYYTSTLHSGVPSRFSGSGSGTDYSLTISNLEQEDIATYFCQQGNTLPWTFGGGTKLEIK"
1.38,6.13,0.000302,49400,1.57,0.000346,220000,0.000222,161000,0.022,4.4e-07,20000,1.76,"mouse: canine 10F07 chimera (antibody, V domains shown) VH: DVKLVESGEGLVKPGGSLKLSCAASGFTFSSYAMSWVRQTPEKRLEWVTYISSGGDYFYYADTVKGRFTISRDNARNTLYLQMSSLKSEDTAMYYCTRDPITGTFAYWGQGTLVTVSA VL: DIQMTQTTSSLSASLGDRVTISCRASQDITNYLNWYQQKPDGTVKLLIYYTSTLHSGVPSRFSGSGSGTDFSLTISNLEQEDIATYFCQQGHMLPWTFGGGTKLEIKR"
,40,8.63,2.16e+08,7.03,0.00158,225000,,,,,,0.134,"Mu_10F07_VL (SEQ ID NO: 41)_W96A (antibody, V domains shown) VH: DVKLVESGEGLVKPGGSLKLSCAASGFTFSSYAMSWVRQTPEKRLEWVTYISSGGDYFYYADTVKGRFTISRDNARNTLYLQMSSLKSEDTAMYYCTRDPITGTFAYWGQGTLVTVSA VL: DIQMTQTTSSLSASLGDRVTISCRASQDITNYLNWYQQKPDGTVKLLIYYTSTLHSGVPSRFSGSGSGTDFSLTISNLEQEDIATYFCQQGHMLPATFGGGTKLEIKR"
,1.69,6.76e-05,40100,1.43,0.000247,173000,,,,,,0.375,"Mu_10F07_VH (SEQ ID NO: 39)_Y107A (antibody, V domains shown) VH: DVKLVESGEGLVKPGGSLKLSCAASGFTFSSYAMSWVRQTPEKRLEWVTYISSGGDYFYYADTVKGRFTISRDNARNTLYLQMSSLKSEDTAMYYCTRDPITGTFAAWGQGTLVTVSA VL: DIQMTQTTSSLSASLGDRVTISCRASQDITNYLNWYQQKPDGTVKLLIYYTSTLHSGVPSRFSGSGSGTDFSLTISNLEQEDIATYFCQQGHMLPWTFGGGTKLEIKR"
2.03,,,,,,,,,1.59,,,,"Mu_10F07 (antibody, V domains shown) VH: DVKLVESGEGLVKPGGSLKLSCAASGFTFSSYAMSWVRQTPEKRLEWVTYISSGGDYFYYADTVKGRFTISRDNARNTLYLQMSSLKSEDTAMYYCTRDPITGTFAYWGQGTLVTVSA VL: DIQMTQTTSSLSASLGDRVTISCRASQDITNYLNWYQQKPDGTVKLLIYYTSTLHSGVPSRFSGSGSGTDFSLTISNLEQEDIATYFCQQGHMLPWTFGGGTKLEIK"
,5.48,0.000222,40500,1.53,0.000274,179000,,,,,,0.15,"Mu_10F07_VL (SEQ ID NO: 41)_L33A (antibody, V domains shown) VH: DVKLVESGEGLVKPGGSLKLSCAASGFTFSSYAMSWVRQTPEKRLEWVTYISSGGDYFYYADTVKGRFTISRDNARNTLYLQMSSLKSEDTAMYYCTRDPITGTFAYWGQGTLVTVSA VL: DIQMTQTTSSLSASLGDRVTISCRASQDITNYANWYQQKPDGTVKLLIYYTSTLHSGVPSRFSGSGSGTDFSLTISNLEQEDIATYFCQQGHMLPWTFGGGTKLEIKR"
,,,,,,,,,8.96,,,,"Mu_02D09 (antibody, V domains shown) VH: EVQLVESGGGLVKPGGSLTLSCAASGFTFSDYGMHWLRQAPEKGLEWVAYISSGSRAVFFADTVKGRFTISRDNAKNTLFLQMTSLRSDDTAMYYCARDRYDGRGFAYWGQGTLVTVSA VL: DIVLTQSPATLSVTPGDSVSLSCRASQSISNNLHWYQQTSHESPRLLITYASQSISGIPSRFSGSGSGTDFTLSINSVETEDFGMYFCQQSNSWPLTFGAGTKLELK"
12.8,,,,9.08,0.00119,131000,0.00328,256000,6.65,0.000942,142000,1.61,"mouse: canine 02D09 chimera (antibody, V domains shown) VH: EVQLVESGGGLVKPGGSLTLSCAASGFTFSDYGMHWLRQAPEKGLEWVAYISSGSRAVFFADTVKGRFTISRDNAKNTLFLQMTSLRSDDTAMYYCARDRYDGRGFAYWGQGTLVTVSA VL: DIVLTQSPATLSVTPGDSVSLSCRASQSISNNLHWYQQTSHESPRLLITYASQSISGIPSRFSGSGSGTDFTLSINSVETEDFGMYFCQQSNSWPLTFGAGTKLELKR"
